Experimental data from PMC5526835.

Molecular target: PCM1 (endogenous) [human (endogenous in HEK293A)]
Assay: GFP-TRAP pull-down and immunoblot, quantified
Conditions: read off a plot, scale: relative protein level normalized to ponceau

response (EBSS (ES) for 2 hr): 0.85 | response (EBSS + BAFA (EB) for 2 hr): 1.2 | response (full medium (FM)): 1
Substance: GFP-GABARAP mutant G116A [human] / PCM1 (endogenous) [human (endogenous in HEK293A)] chain 1 G116A
